Experimental data published in PMC10516627 (Nucleic Acids Research, 2023).

Target: GST-RNF168 (human, UniProt Q8IYW5 1-571)
Test: pull-down

Sequence of GST-RNF168 (Q8IYW5 whole entry): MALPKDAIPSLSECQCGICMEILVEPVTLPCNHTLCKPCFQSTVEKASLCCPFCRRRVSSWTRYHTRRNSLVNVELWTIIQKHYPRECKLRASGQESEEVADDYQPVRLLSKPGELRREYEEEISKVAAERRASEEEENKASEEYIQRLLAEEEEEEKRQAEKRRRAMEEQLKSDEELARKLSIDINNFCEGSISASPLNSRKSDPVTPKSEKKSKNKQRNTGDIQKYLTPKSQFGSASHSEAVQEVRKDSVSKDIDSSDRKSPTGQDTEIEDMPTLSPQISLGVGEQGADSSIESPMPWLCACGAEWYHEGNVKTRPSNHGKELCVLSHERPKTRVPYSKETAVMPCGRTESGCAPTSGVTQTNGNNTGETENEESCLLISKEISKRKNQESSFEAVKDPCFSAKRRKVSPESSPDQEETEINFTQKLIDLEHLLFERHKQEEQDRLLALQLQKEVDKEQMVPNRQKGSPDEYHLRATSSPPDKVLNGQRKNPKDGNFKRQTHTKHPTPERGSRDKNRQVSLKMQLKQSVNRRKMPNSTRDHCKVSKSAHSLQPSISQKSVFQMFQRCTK

B1: His-HDAC6 DAC2 domain (441-835 aa) (domain or fragment, human, UniProt Q9UBN7 441-835, looked up)
chain: STETVERDNMEEDNVEESEEEGPWEPPVLPILTWPVLQSRTGLVYDQNMMNHCNLWDSHHPEVPQRILRIMCRLEELGLAGRCLTLTPRPATEAELLTCHSAEYVGHLRATEKMKTRELHRESSNFDSIYICPSTFACAQLATGAACRLVEAVLSGEVLNGAAVVRPPGHHAEQDAACGFCFFNSVAVAARHAQTISGHALRILIVDWDVHHGNGTQHMFEDDPSVLYVSLHRYDHGTFFPMGDEGASSQIGRAAGTGFTVNVAWNGPRMGDADYLAAWHRLVLPIAYEFNPELVLVSAGFDAARGDPLGGCQVSPEGYAHLTHLLMGLASGRIILILEGGYNLTSISESMAACTRSLLGDPPPLLTLPRPPLSGALASITETIQVHRRYWRSLR
B1: binds.

B2: His-HDAC6 DAC1 domain (1-440 aa) (domain or fragment, human, UniProt Q9UBN7 1-440, looked up)
chain: MTSTGQDSTTTRQRRSRQNPQSPPQDSSVTSKRNIKKGAVPRSIPNLAEVKKKGKMKKLGQAMEEDLIVGLQGMDLNLEAEALAGTGLVLDEQLNEFHCLWDDSFPEGPERLHAIKEQLIQEGLLDRCVSFQARFAEKEELMLVHSLEYIDLMETTQYMNEGELRVLADTYDSVYLHPNSYSCACLASGSVLRLVDAVLGAEIRNGMAIIRPPGHHAQHSLMDGYCMFNHVAVAARYAQQKHRIRRVLIVDWDVHHGQGTQFTFDQDPSVLYFSIHRYEQGRFWPHLKASNWSTTGFGQGQGYTINVPWNQVGMRDADYIAAFLHVLLPVALEFQPQLVLVAAGFDALQGDPKGEMAATPAGFAQLTHLLMGLAGGKLILSLEGGYNLRALAEGVSASLHTLLGDPCPMLESPGAPCRSAQASVSCALEALEPFWEVLVR
B2: binds.
